According to PMC2958806:

Legend:
[1] = target: DENV2 E DI/II protein (E domains I and II, E residues 1-291) (dengue virus 2 (New Guinea C strain))
[2] = target: DENV2 E DI/II H244A (dengue virus 2 (New Guinea C strain))

Substance | liposome co-floatation of DI/II at low pH in the presence of DIII (no co-floatation when BSA was substituted for DIII) [1] | liposome co-floatation of H244A DI/II at pH 5.75 with DIII, efficiency of floatation in the presence of pr (43% in the absence of pr) [2]
DENV2 NGC DIII (LDIIIH1CS, E residues 289-430) (domain or fragment) | 25% | 
DENV2 pr peptide (recombinant, prM residues 1-86 with tandem Strep tag) (domain or fragment) |  | 47%
